1 molecule from publication doi:10.1101/783373 (bioRxiv, 2019) can be followed below.

Assay [1] deals with PACRGΔ1-69 Y108ϕ (p-iodo-L-phenylalanine derivative) (human, UniProt Q96M98-2 70-257, Y108ϕ, p-iodo-L-phenylalanine (ϕ) at 108). Briefly: SEC.
The target in assay [2] is PACRGΔ1-69 Y189ϕ (p-iodo-L-phenylalanine derivative) (human, UniProt Q96M98-2 70-257, Y189ϕ, p-iodo-L-phenylalanine (ϕ) at 189). Briefly: SEC. For orientation: Size exclusion chromatography separates by hydrodynamic size, large species first.

B1: MEIG1 (human), His6 tag cleaved (natural protein)
chain: MASSDVKPKSVSHAKKWSEEIENLYRFQQAGYRDETEYRQVKQVSMVDRWPETGYVKKLQRRDNTFYYYNKQRECDDKEVHKVKIYAY
On to B1, for which the binding result in assay [1] and in assay [2] was “binds” throughout.
